The series can be described thus: soluble on expression in E. coli; label from the status in PepcDB or PDB records.
With “MLIPSKLSRPVRLDHTVVRERLLAKLSGANNFRLALVTSPAGYGKTTLVSQWAAGKNELGWYSLDEGDNQQERFASYLIAAIQQATGGHCSTSEAMAQKRQYASLTSLFAQLFIELAQWHRPLYLVIDDYHLITNPVIHDAMRFFLRHQPENFTLVVLSRNLPQLGIANLRVRDQLLEIGSQQLAFNHQEAKQFFDRRLSSPIEAAESSRMCDDVAGWATALQLIALSARQNHTSAHHSARRLAGINASHLSDYLVDEVLDNVDVSTRHFLLKSAILRSMNDALIVRVTGEENGQMRLEEIERQGLFLQRMDDTGEWFSYHPLFGSFLRQRCQWELAAELPEIHRAAAESWMEQGFPSEAIHHALAAGDAQMLRDILLNHAWGLFNHSELALLEESLKALPWESLLENPRLVLLQAWLMQSQHRYSEVNTLLARAEQEIKGVMDGTLHAEFNALRAQVAINDGNPEEAERLAKLALDELPLAWFYSRIVATSVHGEVLHCKGDLSQSLSLMQQTEQMARHHDVWHYALWSLIQQSEIQFAQGFLQAAWETQERAFQLIKEQHLEQLPMHEFLVRIRAQLLWAWARLDEAEASARSGIAVLSTFQPQQQLQCLTLLVQCSLARGDLDNARSQLNRLENLLGNGRYHCDWISNADKVRVIYWQLTGDKKSAANWLRHTPKPAFANNHFLQGQWRNIARAQILLGEFEPAEIVLEELNENARSLRLMSDLNCNLLLLNQLYWQSGRKNDAQRVLLDALQLANRTGFISHFVIEGEAMAQQLRQLIQLNTLPEMEQHRAQRILREINQHHRHKFAHFDEGFVERLLNHPDVPELIRTSPLTQREWQVLGLIYSGYSNEQIAGELAVAATTIKTHIRNLYQKLGVAHRQDAVQHAQQLLKMMGYGV”, the “soluble on expression in E. coli” value is given as “not soluble”. As to “MTTTGHVHFYIGTYTNPPSTSTSTGIARLSLNTETGELTRLDDVVVQRNPSYLTTTEHGLYTFSEMDRNEGTELAFFRGSESVSLPINGDYPCHLDIKEPLLAVANYGSGNVSVFQLDRDGKPLGLLADLYVDGCGPNLERQTSPHAHQVTFLKHSHQLVVVDLGSDSVLIYDYDAQPPDFSLSQVIHLPAGSGPRHVVFNQQESTAYVVCELSETLIVLVKHQDKWLISNQTELLEGEENQQAAAAIRLSQDETFLYVSCRAQNKISMFDVSGDTPKRRAAIHCEGVFPRDFVLSHDQKWLLVANQHSNNVVSFRRNPQTGEITPTGYDCEIGSPVCIVEQPLLEHHHHHH”, the “soluble on expression in E. coli” value is on record as “not soluble”.

On to “MSLSEALERLIDQGVGREPADIVLKGGRFFDLVTGELVASDIAISGERIVGTCGDYEGREEIDVTGRIVVPGFIDTHLHIESSLVTPHEFDRCVLPLGITTVVCDPHEIANVLGTEGIQYFLDSAMETVMDIRVQLSSCVPATHLETSGADLPVGRLTPFRHHPKVIGLAEFMNFPGVVNKDPVCLAKLDAFQDGHIDGHAPLLRGKELNGYLAAGIRTDHECTSAEEALEKIRKGMHILVREGSVSKDLQALMPILTERLSPYLALCTDDRNPLDIAEQGHLDNMIRTAISAGVEPLAIYRAASISAARAFGLRDRGLVAPGWRADLVIVDSLENCKAELVLSAGRRVTDALFAGRKPVEPVGLDSVKAREVKAADFGLPYNEGETSVLGVLPGKIITEHRRYRLPAEGNRTGVDLDRDIIKVAVIERHGVNGNHANGFVQGFGLKKGAIASTVGHDSHNICVVGVNDDDMALAVNRLGEIKGGFVVVHDGKVTGEIALPVAGLMSLEPYERVRDTLHHLRQAAFALGATLEEPFLQLAFLPLPVIPHLKISDRGLVDVDRFMLIGEGHHHHHH”, for which the “soluble on expression in E. coli” value is recorded as “soluble”. Take “RVTDAEHPGVQLEFTNNKGELVSYEAISPWQKNAAGVNFHTFYGFGAVDLDEAMKRARMTNNVLPAQIITPWANNATEVSVPDASLAGGSSNIAITDDITVESVQVKLTLEHSRLPDLAIELVSPSGTRSVLQTPRNGLVGQSLDPNITGYENQLMLSNQFYGENAKGEWTLRAIDTNGDEVFSFIAYFNSSAIYDVPMANNAKPGVIKNWSMRIFGH”: the “soluble on expression in E. coli” value is “not soluble”. Consider “MGSDKIHHHHHHMQIISHRGYWLHKPERNLTQAFHRSFDFGFGTETDVRDVAGQLVISHDMPVGGELTLDGLLDIMAGRNLPLAINVKADGMALALKKTFARYGHTNWFVFDMAVPDMRSYLIEEVITYSRLSDVEPSPAWLERATGVWLDGFDSEWFSNQVIGDLLSQDKQVCVVSPELHGRDCMALWQQLLEFRSENRLTLCTDTPVDAAIFFK”, for which the “soluble on expression in E. coli” value is “not soluble”. Take “MPQVQSWFPVQKQPTLAVTFTPLPQLSHAHLPLPPSHLVTKTDAMFQHQLLPTQLQPFPPNHTPLLLLLTVTTMAVTPRLSLLNVLKKLQQPPFLQNHTLLLPLLTVTTTAVTPRLSLPRLPNKHHWPLAQSPSLLLQLLILLLPAPSLVLSFNPKVWLLV”: the “soluble on expression in E. coli” value is given as “not soluble”. With “MDIFYKKIKANVTPEVLAQLHSKKIILESTNQQQTKGRYSVVIFDIYGTLTLDNDVLSVSTLKESYQITERPYHYLTTKINEDYHNIQDEQLKSLPFISGYVGTCSFDLVRHEFPKLQSIQLEDHKQHDVRLYMVEQVYVFDHYKDELYIIATNQFSNSTKSDLENRVIKSIEDLTKIQPFMPTQDFDFKTKEIQSNISEERFIEMIQYFKEKITEGDMFQVVPSRIYKYAHHASQHLNQLSFQLYQNLKRQNPSPYMYYLNIDQPYIVGSSPESFVSVKDQIVTTNPIAGTIQRGETTQIDNENMKQLLNDPKECSEHRMLVDLGRNDIHRVSKIGTSKITKLMVIEKYEHVMHIVSEVTGKINQNLSPMTVIANLLPTGTVSGAPKLRAIERIYEQYPHKRGVYSGGVGYINCNHNLDFALAIRTMMIDEQYINVEAGCGVVYDSIPEKELNETKLKAKSLLEVSP”, the “soluble on expression in E. coli” value is “not soluble”. Regarding “MFGFPTATLLDCHGRYAQNVAFFNVMTEAHHKYDHSEATGSSSWDIQNSFRREKLEQKSPDSKTLQEDSPGVRQRVYECQECGKSFRQKGSLTLHERIHTGQKPFECTHCGKSFRAKGNLVTHQRIHTGEKPYQCKECGKSFSQRGSLAVHERLHTGQKPYECAICQRSFRNQSNLAVHRRVHSGEKPYRCDQCGKAFSQKGSLIVHIRVHTGLKPYACTQCRKSFHTRGNCILHGKIHTGETPYLCGQCGKSFTQRGSLAVHQRSCSQRLTL”, the “soluble on expression in E. coli” value is listed as “soluble”. In the case of “MSDNLPWKTWTPDDLAPPPAEFVPMVESEETIIEEAEPSLEQQLAQLQMQAHEQGYQAGIAEGRQQGHEQGYQEGLAQGLEQGLAEAKAQQAPIHARMQQLVSEFQTTLDALDSVIASRLMQMALEAARQVIGQTPTVDNSALIKQIQQLLQQEPLFSGKPQLRVHPDDLQRVDDMLGATLSLHGWRLRGDPTLHPGGCKVSADEGDLDASVATRWQELCRLAAPGVV”, the “soluble on expression in E. coli” value is given as “not soluble”. As for “MINRKIGFIGAGKMGSALMQGIIKAGIVQPENIGASDVYEPFLKELQTKLGIRVSTDNTVIVRESDILILAVKPQTLGSVLENLKNEITSEKLVISIAAGVPLSTYEGALLEGTRVVRVMPNIAATVSEAASGISPGKNATPEDMKDALTIFSAVGTAVQVPESLMDAVTGLSGSGPAFIFPVIEAMADGAVLEGMDRKSALTLAAQTVLGAAKMALETGMHPGELKDMVTSPAGTTIQGVHALEEAGIRAAFMNAVIRASERSRELGKKAAALEHHHHHH”, the “soluble on expression in E. coli” value was “soluble”. Then “MGSDKIHHHHHHMEKTLVIEHDGEKAVVWETPQIFSENDYDYEVLEKALENTGGPLKEWRKKKYQEYKEWGFPRWKRCNLDGMSLPELSFKRIDLDVDISLLEKLDFEGAHRKFVLLGDTFFTDFRVYGDGKHMMRFDGDGIENVLVVVEKEAEIYKLSSTDRFRNTVMRILVKKNASLKFFNLDFFGNFSFDNVFIVLEEGARLVLRDFKAFGYRKTGHILVKLNKSSKADMKSFFYQNGSGITDLLYLMRFEGEDAEGKLKGNGVVDGAGKIVFRGILDVKRGSKNIVAEETEHTLVLSPDARMDAIPSLWVDENDVTASHSASSSSLDEDELFYLMTRGVDEIESKKLIVRGVFNELLDELDESVKGEVENVVNRIV”, with “not soluble”; and “MKISTQSEVEGVLIKALSEGKGIQHVELALKDLPAFDRKRARTTAITEVLTAASVAQQEAFEQSPSVEGKKWKHSGGKGIEPRSSHIELSGKVVQINETFTIPGSGELAKYPRDTDLSASERIHCHCALGPAVNEEIL”, with “not soluble”; and “MICNNQREFDNSLKCYQTALVTSQWTVRIRNLNWVLQEKVKSLYVEYQIWRGIDQTNKANPNTLRTNLDQVLAQLETFPTASASPIDSGSAGQLTPFHRSHFHPYKDNKRMRFPSNKEGGLCNSLLSSHYEWC”, with “not soluble”. As to “WLEPYMTSVASVKDLSKINLVEALNARLGWPLNQHLDEWLPEHYQLPTGTKKRIRYQHGHEPVLSVRMQEVFGESTSPTVALGRKRLVLELLSPAQRPLQVTSDLAAFWNGSYKDVQKEMKGRYPKHVWPDDPANHVATTKTKRQLNND”, the “soluble on expression in E. coli” value is on record as “not soluble”. In the case of “EAYIGVLIDDLVTKGTNEPYRLLTSRAEYRLLLRHDNADLRLTEKGYEIGLIARERYERFCEKKAQIAAEKKRLESITVKPSKEVNALLEEVGSAPLKEAVQANVFLKRPEVTYEHVAKVIPAPEQELSADVAEQVEIQIKYEGYISKMLQQVERAKKMNDKKIPEDLDYDAINGLATEAKQKLSEVRPLSVGQASRVSGVNPSDISILLVYLE”, the “soluble on expression in E. coli” value is “not soluble”. Turning to “MSLDIFIMDPNEKLTSERLKDFLDRHAARLSRYERLMNMYMGKHPILYEKEKELGKPNNRLVVNFAKYIVDMLNGYFIGIPVKTIHENKEVAAKMKEIAKRNSQNDNNAELSKMCSIYGHAYEFLYQDENAHTRVTYVDPREAFVIYDNTVAQEPLYGVRVLKDDKERPYGTIYSRYDERDFFTSDDGELVIEEKGQEHFFGDVPLIEYVENNERQSAFESVETLINAYNKAISEKANDVDYFADAYLVILGAELDEETIKQIRDNRVINLKSGDGQKIVLEFLDKPNADTTQENLIERLERLIFQISMVANISDEKFGTSSGIALKYKLQPMENIALMKERKFNNGMIRRFKMMFNIPTNFGVDPDEYLNIEYVFTRNIPNNILEEAETAEKLAGITSRQTQLSVLSVVDNVQNELDRIQKEKEGEEINSFNRDMNSPFFGSGELDDGQEEEGHHHHHH”, the “soluble on expression in E. coli” value is “not soluble”. “MGSDKIHHHHHHMINSRARRNLIAQDSGEHRHDFPQILIGWRGEIECEFSKGSGRLNNGLVGIVPNAAEHLFRGLNNNSELLVIDVVLEDPYIQAMEQACNLSFSETLFKQPHFVSLAPEMLPLLEYSANQLLLDKKTATPQLNCQLVSLFMTQLSQMYSPEIKSSAINQRIEATRLNDIIDQRLARPPNNTELANLLHLSESHFYCICQQQFGVSPQKYVMRRRMQRAKFLLLNSKIPLSALASELGFSDVSSFSRAYKKYYQQPPGQTRTLFQLGLNANHASIRK”: the “soluble on expression in E. coli” value is “not soluble”. Take “MEFSVKSGSPEKQRSACIVVGVFEPRRLSPIAEQLDKISDGYISALLRRGELEGKPGQTLLLHHVPNVLSERILLIGCGKERELDERQYKQVIQKTINTLNDTGSMEAVCFLTELHVKGRNNYWKVRQAVETAKETLYSFDQLKTNKSEPRRPLRKMVFNVPTRRELTSGERAIQHGLAIAAGIKAAKDLGNMPPNICNAAYLASQARQLADSYSKNVITRVIGEQQMKELGMHSYLAVGQGSQNESLMSVIEYKGNASEDARPIVLVGKGLTFDSGGISIKPSEGMDEMKYDMCGAAAVYGVMRMVAELQLPINVIGVLAGCENMPGGRAYRPGDVLTTMSGQTVEVLNTDAEGRLVLCDVLTYVERFEPEAVIDVATLTGACVIALGHHITGLMANHNPLAHELIAASEQSGDRAWRLPLGDEYQEQLESNFADMANIGGRPGGAITAGCFLSRFTRKYNWAHLDIAGTAWRSGKAKGATGRPVALLAQFLLNRAGFNGEE”: the “soluble on expression in E. coli” value is “soluble”.

For the origin of these results see the DeepSol protein solubility set.
